Laboratory results reported in patent publication US7786083B2, “Metastin derivatives and use thereof” (Takeda Pharmaceutical Company Limited, priority 2006, dated 2010).
*1 amine or outer side, *2 acyl side, *3 side chain or, on linkers, in order; H or OH if unused. [ ]: non-standard residue; d: D form. Ser(Me) = O-methylserine, COC[C@H](N[*:1])C(=O)[*:2]; 2Nal = N[C@@H](Cc1ccc2ccccc2c1)C(=O)O; Arg(Me) = CNC(=N)NCCC[C@H](N)C(=O)O; Dap(CONH2) = NC(=O)NC[C@H](N)C(=O)O; Ala(cPr) = N[C@@H](CC1CC1)C(=O)O; Hyp = O=C(O)[C@@H]1C[C@@H](O)CN1; tBuAla = CC(C)(C)C[C@H](N)C(=O)O; Aad = N[C@@H](CCCC(=O)O)C(=O)O; Cha = N[C@@H](CC1CCCCC1)C(=O)O; Cit = NC(=O)NCCC[C@H](N)C(=O)O; Cba = N[C@@H](CC1CCC1)C(=O)O; Nle = CCCC[C@H](N)C(=O)O; Nva = CCC[C@H](N)C(=O)O; Abu = CC[C@H](N)C(=O)O; Aib = CC(C)(N)C(=O)O

B1: des(1)-Ac-[D-Tyr2,Hyp3,Thr5,Cha6,Nle8,Arg(Me)9,Trp10]MS10 (peptide)
peptide: Ac-[dY][Hyp]NT[Cha]G[Nle][Arg(Me)]W-NH2
SMILES: CCCC[C@H](NC(=O)CNC(=O)[C@H](CC1CCCCC1)NC(=O)[C@@H](NC(=O)[C@H](CC(N)=O)NC(=O)[C@@H]1C[C@@H](O)CN1C(=O)[C@@H](Cc1ccc(O)cc1)NC(C)=O)[C@@H](C)O)C(=O)N[C@@H](CCCNC(=N)NC)C(=O)N[C@@H](Cc1c[nH]c2ccccc12)C(N)=O
B2: des(1)-Ac-[D-Tyr2,Hyp3,Thr5,Nal(2)6,Arg(Me)9,Trp10]MS10 (peptide)
peptide: Ac-[dY][Hyp]NT[2Nal]GL[Arg(Me)]W-NH2
modifications: not fully specified (residue 7); printed as Ac-D-Tyr-Hyp-Asn-Thr-Nal(2)-Gly-Ala(cPr)-Arg(Me)-Trp-NH2
B3: des(1)-Ac-[D-Tyr2,Hyp3,Thr5,Cha6,8,Arg(Me)9,Trp10]MS10 (peptide)
peptide: Ac-[dY][Hyp]NT[Cha]G[Cha][Arg(Me)]W-NH2
SMILES: CNC(=N)NCCC[C@H](NC(=O)[C@H](CC1CCCCC1)NC(=O)CNC(=O)[C@H](CC1CCCCC1)NC(=O)[C@@H](NC(=O)[C@H](CC(N)=O)NC(=O)[C@@H]1C[C@@H](O)CN1C(=O)[C@@H](Cc1ccc(O)cc1)NC(C)=O)[C@@H](C)O)C(=O)N[C@@H](Cc1c[nH]c2ccccc12)C(N)=O
B4: des(1)-Ac-[D-Tyr2,Hyp3,Thr5,Cha6,Nva8,Arg(Me)9,Trp10]MS10 (peptide)
peptide: Ac-[dY][Hyp]NT[Cha]G[Nva][Arg(Me)]W-NH2
SMILES: CCC[C@H](NC(=O)CNC(=O)[C@H](CC1CCCCC1)NC(=O)[C@@H](NC(=O)[C@H](CC(N)=O)NC(=O)[C@@H]1C[C@@H](O)CN1C(=O)[C@@H](Cc1ccc(O)cc1)NC(C)=O)[C@@H](C)O)C(=O)N[C@@H](CCCNC(=N)NC)C(=O)N[C@@H](Cc1c[nH]c2ccccc12)C(N)=O
B5: des(1)-Ac-[D-Tyr2,Glu3,Thr5,Cha6,Ala(cPr)8,Trp10]MS10 (peptide)
peptide: Ac-[dY]ENT[Cha]G[Ala(cPr)]RW-NH2
SMILES: CC(=O)N[C@H](Cc1ccc(O)cc1)C(=O)N[C@@H](CCC(=O)O)C(=O)N[C@@H](CC(N)=O)C(=O)N[C@H](C(=O)N[C@@H](CC1CCCCC1)C(=O)NCC(=O)N[C@@H](CC1CC1)C(=O)N[C@@H](CCCNC(=N)N)C(=O)N[C@@H](Cc1c[nH]c2ccccc12)C(N)=O)[C@@H](C)O
B6: des(1)-Ac-[D-Tyr2,Hyp3,Thr5,Cha6,Ser(Me)8,Arg(Me)9,Trp10]MS10 (peptide)
peptide: Ac-[dY][Hyp]NT[Cha]G[Ser(Me)][Arg(Me)]W-NH2
SMILES: CNC(=N)NCCC[C@H](NC(=O)[C@H](COC)NC(=O)CNC(=O)[C@H](CC1CCCCC1)NC(=O)[C@@H](NC(=O)[C@H](CC(N)=O)NC(=O)[C@@H]1C[C@@H](O)CN1C(=O)[C@@H](Cc1ccc(O)cc1)NC(C)=O)[C@@H](C)O)C(=O)N[C@@H](Cc1c[nH]c2ccccc12)C(N)=O
B7: des(1)-Ac-[D-Tyr2,Hyp3,Thr5,Cha6,Leu(Me)8,Arg(Me)9,Trp10]MS10 (peptide)
peptide: Ac-[dY][Hyp]NT[Cha]G[tBuAla][Arg(Me)]W-NH2
SMILES: CNC(=N)NCCC[C@H](NC(=O)[C@H](CC(C)(C)C)NC(=O)CNC(=O)[C@H](CC1CCCCC1)NC(=O)[C@@H](NC(=O)[C@H](CC(N)=O)NC(=O)[C@@H]1C[C@@H](O)CN1C(=O)[C@@H](Cc1ccc(O)cc1)NC(C)=O)[C@@H](C)O)C(=O)N[C@@H](Cc1c[nH]c2ccccc12)C(N)=O
B8: des(1)-Ac-[D-Tyr2,Hyp3,Thr5,Cha6,Arg(Me)9,Trp10]MS10 (peptide)
peptide: Ac-[dY][Hyp]NT[Cha]GL[Arg(Me)]W-NH2
SMILES: CNC(=N)NCCC[C@H](NC(=O)[C@H](CC(C)C)NC(=O)CNC(=O)[C@H](CC1CCCCC1)NC(=O)[C@@H](NC(=O)[C@H](CC(N)=O)NC(=O)[C@@H]1C[C@@H](O)CN1C(=O)[C@@H](Cc1ccc(O)cc1)NC(C)=O)[C@@H](C)O)C(=O)N[C@@H](Cc1c[nH]c2ccccc12)C(N)=O
B9: des(1)-Ac-[D-Tyr2,Hyp3,Thr5,Cha6,Ala(cPr)8,Trp10]MS10 (peptide)
peptide: Ac-[dY][Hyp]NT[Cha]G[Ala(cPr)]RW-NH2
SMILES: CC(=O)N[C@H](Cc1ccc(O)cc1)C(=O)N1C[C@H](O)C[C@H]1C(=O)N[C@@H](CC(N)=O)C(=O)N[C@H](C(=O)N[C@@H](CC1CCCCC1)C(=O)NCC(=O)N[C@@H](CC1CC1)C(=O)N[C@@H](CCCNC(=N)N)C(=O)N[C@@H](Cc1c[nH]c2ccccc12)C(N)=O)[C@@H](C)O

These binders were tested against metastin receptor (OT7T175) stably expressed on CHO/dhfr- cells (human or rat, not given) (assay: cell-based or functional assay).

Specific Activity (EC50 of test compound based on EC50 of Metastin (45-54)); agonist activity, intracellular calcium ion level, FLIPR (ratio to Metastin (45-54))	Binder
0.6	B1
1	B2
1.7	Ac-[dY][Hyp]NT[Cha]GL[Arg(Me)]W-NH2 (also: Gly6-Leu7 -CONH- replaced by -CH2S-) [des(1)-Ac-[D-Tyr2,Hyp3,Thr5,Cha6,Gly7Ψ(CH2S)Leu8,Arg(Me)9,Trp10]MS10]
0.7	Ac-[dY]KNT[Cha]G[Ala(cPr)][Arg(Me)]W-NH2 (also: classed as cyclised or stapled) [des(1)-Ac-[D-Tyr2,Lys3,Thr5,Cha6,Ala(cPr)8,Arg(Me)9,Trp10]MS10]
0.7	Ac-[dY][Hyp]NT[Cba]G[Ala(cPr)][Arg(Me)]W-NH2 [des(1)-Ac-[D-Tyr2,Hyp3,Thr5,Ala(cBu)6,Ala(cPr)8,Arg(Me)9,Trp10]MS10]
0.8	Ac-[dY][Hyp]NTFG[Ser(Me)][Arg(Me)]W-NH2 [des(1)-Ac-[D-Tyr2,Hyp3,Thr5,Ser(Me)8,Arg(Me)9,Trp10]MS10]
0.4	Ac-[dY]ENT[Cha]G[Nva][Arg(Me)]W-NH2 [des(1)-Ac-[D-Tyr2,Glu3,Thr5,Cha6,Nva8,Arg(Me)9,Trp10]MS10]
0.7	Ac-[dY][Hyp]NTFGL[Arg(Me)]W-NH2 (also: Phe5-Gly6 amide bond replaced by -CH2S-) [des(1)-Ac-[D-Tyr2,Hyp3,Thr5,Phe6Ψ(CH2S)Gly7,Arg(Me)9,Trp10]MS10]
0.8	Ac-[dY][Hyp]NTFG[Ala(cPr)][Arg(Me)]W-NH2 [des(1)-Ac-[D-Tyr2,Hyp3,Thr5,Ala(cPr)8,Arg(Me)9,Trp10]MS10]
0.9	Ac-[dY][Hyp][Cit]T[Cha]GL[Arg(Me)]W-NH2 (also: Gly6-Leu7 -CONH- replaced by (E)-CH=CH-) [des(1)-Ac-[D-Tyr2,Hyp3,Cit4,Thr5,Cha6,Gly7Ψ((E)CH═CH)Leu8,Arg(Me)9,Trp10]MS10]
0.4	Ac-[dY][Hyp]NTFGLRW-NH2 (also: Gly6-Leu7 -CONH- replaced by (E) CH=CH) [des(1)-Ac-[D-Tyr2,Hyp3,Thr5,Gly7Ψ((E)CH═CH)Leu8,Trp10]MS10]
1.2	Ac-[dY][Hyp]NTFGL[Arg(Me)]W-NH2 (also: Gly6-Leu7 -CONH- replaced by -CH2S-) [des(1)-Ac-[D-Tyr2,Hyp3,Thr5,Gly7Ψ(CH2S)Leu8,Arg(Me)9,Trp10]MS10]
0.6	Ac-[dY][Hyp]NT[Cha]GLRW-NH2 (also: Gly6-Leu7 -CONH- replaced by (E) CH=CH) [des(1)-Ac-[D-Tyr2,Hyp3,Thr5,Cha6,Gly7Ψ((E)CH═CH)Leu8,Trp10]MS10]
3.5	B3
0.5	B4
0.4	B5
0.5	B6
1.4	B7
0.5	Ac-[dY]ENT[Cha]G[Ser(Me)][Arg(Me)]W-NH2 [des(1)-Ac-[D-Tyr2,Glu3,Thr5,Cha6,Ser(Me)8,Arg(Me)9,Trp10]MS10]
0.3	B8
1.4	Ac-[dY][Hyp]QT[Cha]GL[Arg(Me)]W-NH2 (also: Gly6-Leu7 -CONH- replaced by (E)-CH=CH-) [des(1)-Ac-[D-Tyr2,Hyp3,Gln4,Thr5,Cha6,Gly7Ψ((E)CH═CH)Leu8,Arg(Me)9,Trp10]MS10]
0.6	Ac-[dY][Aib]NT[Cha]G[Ala(cPr)][Arg(Me)]W-NH2 [des(1)-Ac-[D-Tyr2,Aib3,Thr5,Cha6,Ala(cPr)8,Arg(Me)9,Trp10]MS10]
0.5	B9
0.7	Ac-[dY][Hyp]NTFG[Nva][Arg(Me)]W-NH2 [des(1)-Ac-[D-Tyr2,Hyp3,Thr5,Nva8,Arg(Me)9,Trp10]MS10]
0.5	Ac-[dY][Hyp][Dap(CONH2)]T[Cha]GLRW-NH2 (also: Gly6-Leu7 -CONH- replaced by (E)-CH=CH-) [des(1)-Ac-[D-Tyr2,Hyp3,Alb4,Thr5,Cha6,Gly7Ψ((E)CH═CH)Leu8,Trp10]MS10]
1	Ac-[dY][Hyp]NTF[Abu]L[Arg(Me)]W-NH2 [des(1)-Ac-[D-Tyr2,Hyp3,Thr5,Abu7,Arg(Me)9,Trp10]MS10]
1.1	Ac-[dY][Aad]NT[Cha]G[Ala(cPr)][Arg(Me)]W-NH2 [des(1)-Ac-[D-Tyr2,Aad3,Thr5,Cha6,Ala(cPr)8,Arg(Me)9,Trp10]MS10]
4.6	Ac-[dY][Hyp]ET[Cha]GL[Arg(Me)]W-NH2 (also: Gly6-Leu7 -CONH- replaced by (E)-CH=CH-) [des(1)-Ac-[D-Tyr2,Hyp3,Glu4,Thr5,Cha6,Gly7Ψ((E)CH═CH)Leu8,Arg(Me)9,Trp10]MS10]
